# Data taken from patent US20230140293A1.
# Columns and labels:
# [1] = molecular target: CH0505TF Env, pseudotyped virus produced in 293S GnTI- cells (HIV-1); experiment: cell-based or functional assay
# [2] = molecular target: HIV-1 Env 426c.SM (N276D), Env-pseudotyped virus produced in 293T cells (HIV-1 clade C strain 426c); experiment: cell-based or functional assay
# [3] = molecular target: HIV-1 Env 426c.DM (N460D.N463D), Env-pseudotyped virus produced in 293S GnTI- cells (Man5-enriched) (HIV-1 clade C strain 426c); experiment: cell-based or functional assay
# [4] = molecular target: CH0505TF Env, Env-pseudotyped virus produced in 293T cells (HIV-1); experiment: cell-based or functional assay
# [5] = molecular target: HIV-1 426c.TM (N276D/N460D/N463D) Env on Env-pseudotyped virus produced in 293T cells (HIV-1); experiment: cell-based or functional assay
# [6] = molecular target: CH0505TF.gly4 Env, pseudotyped virus produced in 293S GnTI- cells (HIV-1); experiment: cell-based or functional assay
# [7] = molecular target: HIV-1 Env 426c.TM4 (S278R.G471S.N460D.N463D), Env-pseudotyped virus produced in 293T cells (HIV-1 clade C strain 426c); experiment: cell-based or functional assay
# [8] = molecular target: CH0505TF.G458Y Env, Env-pseudotyped virus produced in 293T cells (HIV-1); experiment: cell-based or functional assay
# [9] = molecular target: HIV-1 426c.DM (N460D/N463D) Env on Env-pseudotyped virus produced in 293T cells (HIV-1); experiment: cell-based or functional assay
# [10] = molecular target: HIV-1 Env 426c, Env-pseudotyped virus produced in 293T cells (HIV-1 clade C strain 426c); experiment: cell-based or functional assay
# [11] = molecular target: CH0505TF.gly3.197 Env, Env-pseudotyped virus produced in 293T cells (HIV-1); experiment: cell-based or functional assay
# [12] = molecular target: CH0505TF.gly3.197 Env, pseudotyped virus produced in 293S GnTI- cells (HIV-1); experiment: cell-based or functional assay
# [13] = molecular target: HIV-1 Env 426c.TM (N276D.N460D.N463D), Env-pseudotyped virus produced in 293T cells (HIV-1 clade C strain 426c); experiment: cell-based or functional assay
# [14] = molecular target: CH0505.w4.3 Env, pseudotyped virus produced in 293S GnTI- cells (HIV-1); experiment: cell-based or functional assay
# [15] = molecular target: HIV-1 426c.TM (N276D/N460D/N463D) Env on Env-pseudotyped virus produced in 293s/GnTI-/- cells (Man5-enrichment) (HIV-1); experiment: cell-based or functional assay
# [16] = molecular target: HIV-1 Env 426c.SM (N276D), Env-pseudotyped virus produced in 293S GnTI- cells (Man5-enriched) (HIV-1 clade C strain 426c); experiment: cell-based or functional assay
# [17] = molecular target: HIV-1 426c.SM (N276D) Env on Env-pseudotyped virus produced in 293s/GnTI-/- cells (Man5-enrichment) (HIV-1); experiment: cell-based or functional assay
# [18] = molecular target: CH0505TF.gly3.276 Env, Env-pseudotyped virus produced in 293T cells (HIV-1); experiment: cell-based or functional assay
# [19] = molecular target: HIV-1 CH0505TF.gly4 Env on Env-pseudotyped virus produced in 293T cells (HIV-1); experiment: cell-based or functional assay
# [20] = molecular target: HIV-1 426c.SM (N276D) Env on Env-pseudotyped virus produced in 293T cells (HIV-1); experiment: cell-based or functional assay
# [21] = molecular target: CH0505TF.gly3.461 Env, Env-pseudotyped virus produced in 293T cells (HIV-1); experiment: cell-based or functional assay
# [22] = molecular target: HIV-1 clade C strain 426c Env on Env-pseudotyped virus produced in 293s/GnTI-/- cells (Man5-enrichment) (HIV-1); experiment: cell-based or functional assay
# [23] = molecular target: CH0505TF.gly3.276 Env, pseudotyped virus produced in 293S GnTI- cells (HIV-1); experiment: cell-based or functional assay
# [24] = molecular target: HIV-1 Env 426c, Env-pseudotyped virus produced in 293S GnTI- cells (Man5-enriched) (HIV-1 clade C strain 426c); experiment: cell-based or functional assay
# [25] = molecular target: CH0505.w4.3 Env, Env-pseudotyped virus produced in 293T cells (HIV-1); experiment: cell-based or functional assay
# [26] = molecular target: CH505 w030.28 gp120 (HIV-1); experiment: ELISA, gp120 on plate
# [27] = molecular target: CH505 M5 gp120 (HIV-1); experiment: ELISA, gp120 on plate
# [28] = molecular target: CH505 w020.14 gp120 (HIV-1); experiment: ELISA, gp120 on plate
# [29] = molecular target: CH505 M11 gp120 (HIV-1); experiment: ELISA, gp120 on plate
# [30] = molecular target: CH505 w053.31 gp120 (HIV-1); experiment: ELISA, gp120 on plate
# [31] = molecular target: HIV-1 CH0505TF.S365P Env on Env-pseudotyped virus produced in 293S GnTI- cells (HIV-1); experiment: cell-based or functional assay
# [32] = molecular target: HIV-1 CH0505TF.N280D Env on Env-pseudotyped virus produced in 293S GnTI- cells (HIV-1); experiment: cell-based or functional assay
# [33] = molecular target: HIV-1 CH0505TF (CH505 transmitted/founder) Env on Env-pseudotyped virus produced in 293T cells (HIV-1); experiment: cell-based or functional assay
# [34] = molecular target: HIV-1 CH0505TF.N280D Env on Env-pseudotyped virus produced in 293T cells (HIV-1); experiment: cell-based or functional assay
# [35] = molecular target: HIV-1 CH0505TF.S365P Env on Env-pseudotyped virus produced in 293T cells (HIV-1); experiment: cell-based or functional assay
# [36] = molecular target: HIV-1 CH0505TF.G458Y Env on Env-pseudotyped virus produced in 293T cells (HIV-1); experiment: cell-based or functional assay
# [37] = molecular target: HIV-1 CH0505TF Env on Env-pseudotyped virus produced in 293S/GnTI-/- cells (Man5-enrichment) (HIV-1); experiment: cell-based or functional assay
Substance,IC50 (µg/ml) in TZM-bl [1] [µg/mL],IC50 (µg/ml) in TZM-bl [2] [µg/mL],IC50 (µg/ml) in TZM-bl [3] [µg/mL],IC50 (µg/ml) in TZM-bl [4] [µg/mL],ID50/IC50 in TZM-bl [5] [µg/mL],IC50 (µg/ml) in TZM-bl [6] [µg/mL],IC50 (µg/ml) in TZM-bl [7] [µg/mL],IC50 (µg/ml) in TZM-bl [8] [µg/mL],ID50/IC50 in TZM-bl [9] [µg/mL],IC50 (µg/ml) in TZM-bl [10] [µg/mL],IC50 (µg/ml) in TZM-bl [11] [µg/mL],IC50 (µg/ml) in TZM-bl [12] [µg/mL],IC50 (µg/ml) in TZM-bl [13] [µg/mL],IC50 (µg/ml) in TZM-bl [14] [µg/mL],ID50/IC50 in TZM-bl [15] [µg/mL],IC50 (µg/ml) in TZM-bl [16] [µg/mL],ID50/IC50 in TZM-bl [17] [µg/mL],IC50 (µg/ml) in TZM-bl [18] [µg/mL],IC50 (ug/ml) in TZM-bl cells [19] [µg/mL],ID50/IC50 in TZM-bl [20] [µg/mL],also measured
CH103 (antibody),0.57,> 40,0.63,1.9,5.2,0.005,3.7,6.4,6.1,> 40,1.6,0.19,5.2,0.18,0.09,2.2,2.2,0.014,0.01,> 40,IC50 (µg/ml) in TZM-bl [21]: 0.014 µg/mL; ID50/IC50 in TZM-bl [22]: 5.3 µg/mL; IC50 (µg/ml) in TZM-bl [23]: 0.007 µg/mL; IC50 (µg/ml) in TZM-bl [24]: 5.3 µg/mL; IC50 (µg/ml) in TZM-bl [25]: 0.31 µg/mL; log AUC [26]: 12.8 log AUC; log AUC [27]: 9.8 log AUC; log AUC [28]: 12.6 log AUC; log AUC [29]: 13.4 log AUC; log AUC [30]: 13.6 log AUC; IC50 (µg/ml) in TZM-bl [31]: 1.7 µg/mL; IC50 (µg/ml) in TZM-bl [32]: 0.24 µg/mL; IC50 (µg/ml) in TZM-bl [33]: 1.9 µg/mL; IC50 (µg/ml) in TZM-bl [34]: 1.2 µg/mL; IC50 (µg/ml) in TZM-bl [35]: > 50 µg/mL; IC50 (µg/ml) in TZM-bl [36]: 5.8 µg/mL; IC50 (µg/ml) in TZM-bl [37]: 0.57 µg/mL
CH235 (antibody),0.03,> 50,> 25,0.3,> 50,0.004,> 25,0.1,> 50,> 50,0.16,0.006,> 50,0.03,> 25,> 25,> 25,0.034,0.022,> 50,IC50 (µg/ml) in TZM-bl [21]: 0.086 µg/mL; ID50/IC50 in TZM-bl [22]: > 25 µg/mL; IC50 (µg/ml) in TZM-bl [23]: 0.02 µg/mL; IC50 (µg/ml) in TZM-bl [24]: > 25 µg/mL; IC50 (µg/ml) in TZM-bl [25]: 0.4 µg/mL; log AUC [26]: 6.7 log AUC; log AUC [27]: 11.4 log AUC; log AUC [28]: 9.9 log AUC; log AUC [29]: 7.6 log AUC; log AUC [30]: 1.1 log AUC; IC50 (µg/ml) in TZM-bl [31]: 0.02 µg/mL; IC50 (µg/ml) in TZM-bl [32]: 3.4 µg/mL; IC50 (µg/ml) in TZM-bl [33]: 0.3 µg/mL; IC50 (µg/ml) in TZM-bl [34]: > 25 µg/mL; IC50 (µg/ml) in TZM-bl [35]: 0.6 µg/mL; IC50 (µg/ml) in TZM-bl [36]: 0.1 µg/mL; IC50 (µg/ml) in TZM-bl [37]: 0.03 µg/mL
